Assay results taken from US20200390853A1, “ACTIVE PEPTIDE FOR ENHANCING THE PHAGOCYTIC FUNCTIONS OF RETINAL PIGMENT EPITHELIUM AND A USE THEREOF” (Beijing Tongren Hospital, Capital Medical University, priority 2019, published 2020).

B1: Gas6-LamininG active peptide: sequence of EGF-LamininG functional domain of Gas6 protein, amino acid sequence SEQ ID NO.1 (protein)
chain: DQCTPNPCDRKGTQACQDLMGNFFCLCKAGWGGRLCDKDVNECSQENGGCLQICHNKPGSFHCSCHSGFELSSDGRTCQDIDECADSEACGEARCKNLPGSYSCLCDEGFAYSSQEKACRDVDECLQGRCEQVCVNSPGSYTCHCDGRGGLKLSQDMDTCEDILPCVPFSVAKSVKSLYLGRMFSGTPVIRLRFKRLQPTRLVAEFDFRTFDPEGILLFAGGHQDSTWIVLALRAGRLELQLRYNGVGRVTSSGPVINHGMWQTISVEELARNLVIKVNRDAVMKIAVAGDLFQPERGLYHLNLTVGGIPFHEKDLVQPINPRLDGCMRSWNWLNGEDTTIQETVKVNTRMQCFSVTERGSFYPGSGFAFYSLDYMRTPLDVGTESTWEVEVVAHIRPAADTGVLFALWAPDLRAVPLSVALVDYHSTKKLKKQLVVLAVEHTALALMEIKVCDGQEHVVTVSLRDGEATLEVDGTRGQSEVSAAQLQERLAVLERHLRSPVLTFAGGLPDVPVTSAPVTAFYRGCMTLEVNRRLLDLDEAAYKHSDITAHSCPPVEPAAA
modifications: the amino acid sequence of the active peptide
B2: Gas6 full-length proteins: Gas6 full-length proteins used as comparator (protein, UniProt Q14393 1-678, looked up)
chain: MAPSLSPGPAALRRAPQLLLLLLAAECALAALLPAREATQFLRPRQRRAFQVFEEAKQGHLERECVEELCSREEAREVFENDPETDYFYPRYLDCINKYGSPYTKNSGFATCVQNLPDQCTPNPCDRKGTQACQDLMGNFFCLCKAGWGGRLCDKDVNECSQENGGCLQICHNKPGSFHCSCHSGFELSSDGRTCQDIDECADSEACGEARCKNLPGSYSCLCDEGFAYSSQEKACRDVDECLQGRCEQVCVNSPGSYTCHCDGRGGLKLSQDMDTCEDILPCVPFSVAKSVKSLYLGRMFSGTPVIRLRFKRLQPTRLVAEFDFRTFDPEGILLFAGGHQDSTWIVLALRAGRLELQLRYNGVGRVTSSGPVINHGMWQTISVEELARNLVIKVNRDAVMKIAVAGDLFQPERGLYHLNLTVGGIPFHEKDLVQPINPRLDGCMRSWNWLNGEDTTIQETVKVNTRMQCFSVTERGSFYPGSGFAFYSLDYMRTPLDVGTESTWEVEVVAHIRPAADTGVLFALWAPDLRAVPLSVALVDYHSTKKLKKQLVVLAVEHTALALMEIKVCDGQEHVVTVSLRDGEATLEVDGTRGQSEVSAAQLQERLAVLERHLRSPVLTFAGGLPDVPVTSAPVTAFYRGCMTLEVNRRLLDLDEAAYKHSDITAHSCPPVEPAAA
modifications: full-length
notes: Gas6 full-length proteins used as comparator

What was measured:
[1] = test system: AKT phosphorylation level downstream of MerTK; test: AKT phosphorylation level in RPE cells cultivated in vitro (Western blotting, pAKT/GAPDH); format: cell-based; conditions: 200 ng/ml and 800 ng/ml, 30 minutes, vs blank control
Protocol: Segmented cloning was conducted according to the functional domain of Gas6 protein, wherein the sequence of EGF-LamininG functional domain is the primary active peptide sequence (G3, named as Gas6-LamininG active peptide).

RPE cells = test: Model of in vitro RPE phagocytosis (disc membrane uptake, laser confocal); format: cell-based; conditions: after 3 h of RPE phagocytosis, p<0.05 between groups

| Molecule | Akt phosphorylation level (relative gray value of pAKT/GAPDH) [1] | contents of disc membranes taken up (RPE phagocytosis capacity) (RPE cells) |
| --- | --- | --- |
| B1 | significantly upregulating Akt phosphorylation levels | an effect of enhancing the phagocytic functions of retinal pigment epithelium |
| B2 | significantly upregulating Akt phosphorylation levels | – |
